Measurements: US20220195015A1 (published 2022)
Changes are numbered by the printed parent chain.

Assays:
[1] = biological target: SARS-CoV-2 spike protein receptor binding domain (RBD) (SARS-CoV-2, UniProt P0DTC2 319-539); assay: ELISA on plate-coated RBD
[2] = biological target: SARS-CoV-2 spike protein receptor binding domain (RBD), wild type (SARS-CoV-2, UniProt P0DTC2 319-539); assay: ELISA, RBD protein coated on plate, antibody titrated

B1: C707 (antibody, V domains shown)
VH: EVQLVESGGGLVKPGGSLRLSCAASGFTFSSYSMNWVRQAPGKGLAWVSSISSSNNIIYYADSVKGRFTISRDDAKDSLYLHMKSLRADDTAVYFCARVPSWAPYQLLPGPFDYWGQGILVTVSS
VL: IRMTQSPSSLSASVGDRVTITCQASQAIASYLSWYQHKPGRAPKLLIYDASNLEIGVPSRFSGSGSGTDFTFTISSLQSEDNATYYCQQYESLPGTFGGGTKVEIK
Question: With B1 as the binder, how does the EC50 [1] read?
Answer: Its EC50 is 26 ng/mL.

B2: C528 (antibody, V domains shown)
VH: EVQLVESGGGLVQPGGSLRLSCAASGFTFRNYDMHWVRQVAGKGLEWVSAIGTSGDTYYPDSVKGRFTISRENAKNSVYLQMNNLRAGDTAVYFCVRDREISGWTGWYFDLWGRGTLVTVSS
VL: DIQMTQSPSSLSASVGDRVTITCRASQTIHNYLNWYQQIPGKAPRLLIYATNTLQSGVPSRFSGSGSGTDFTLTITGLQPEDFATYYCQQSYSTPPITFGQGTRLEIK
Question: How did the EC50 [2] turn out when B2 was run?
Answer: The EC50 was 5.66 ng/mL.

B3: C049 (antibody, V domains shown)
VH: QVQLQESGPGLVKPSETLSLTCTVSGGSVSSGTFYWSWIRQPPGKGLEWIGYIHYSGSTNYNPSLKSRVTISVDTSKNQFSLRLSSVTAADTAVYYCARESFYYDRSGYYGSDAFDIWGQGTMVTVSS
VL: DIQMTQSPSTLSSSVGDRVTITCRASQNISRWLAWYQQKPGKAPKLLIYKASTLESGVPSRFSGSGSGTKFTLTISSLQPDDFATYYCQQYNSYLYTFGQGTKLEIK
Question: Which EC50 [1] does the source give for B3 here?
Answer: Its EC50 is 4.09 ng/mL.

B4: C568 (antibody, V domains shown)
VH: QVQLVQSGAEVKKPGASVKVSCTASGYTFSSYYIHWVRQAPGQGLEWMGIINPGAGSTSYAQKFQGRVAMTTDTSTRTVYMELSSLRSDDTAVYYCARDEAFLPSAIFVGDYWGQGTLVTVSS
VL: DIQMTQSPSSLSASVGDRVTITCRASQGIRNDLGWYQQKPGKAPKRLIYAASNLQSGVPSRFSGSGSGTEFTLTISSLQPEDFATYYCLQHSTYPHTWTFGQGTKVEIK
Question: With B4 as the binder, how does the EC50 [1] read?
Answer: Its EC50 is 5.99 ng/mL.

B5: C048 (antibody, V domains shown)
VH: VQLQESGPGLVKPSETLSLTCAVSGGSVSSGNYYWNWIRQPPGKGLEWIGYIYYSGSTNYNPSLKSRVTISVDTSKNQFSLKLNSVTAADTAVYHCARETYYYDSSGYYISDAFDIWGQGTMVTVSS
VL: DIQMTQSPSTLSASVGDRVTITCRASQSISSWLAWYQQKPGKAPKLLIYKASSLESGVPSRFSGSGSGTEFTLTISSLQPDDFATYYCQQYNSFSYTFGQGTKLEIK
Question: For B5, which EC50 [1] is on record?
Answer: Its EC50 is 4.8 ng/mL.

B6: C527 (antibody, V domains shown)
VH: QVQLVESGGGVVQPGRSLRLSCAASGFTFSSYGMHWVRQAPGKGLEWVALIGYDGTDKYYAENVKGRFTISRDNSKNTLFLQMNSLRGGDTAVYLCARDGIPFRYGMDVWGQGTTVTVSS
VL: DIQMTQSPSTLSASVGDRVTITCRASQSIDIWLAWYQQKPGKAPKFLIHKASTLESGVPSRFSGSGSGTEFTLTISSLQPDDFATYYCQHYHSYSGTFGQGTKVEIK
Question: B6 was tested. Which EC50 [2] did it give?
Answer: Its EC50 is 13.4 ng/mL.

B7: C047 (antibody, V domains shown)
VH: QVQLQESGPGLVKPSETLSLTCTVSGGSISSTTYYWDWIRQSPGKGLEWIGSIFYTGITYYSPSLKSRVTISVDTSKNQFSLRLNSMTAADTAVYYCARRLRQLWFGPWFDPWGQGTLVTVSS
VL: QSALTQPPSASGSPGQSVTISCTGTRSDVGDYNYVSWYQQHPDKAPKLIIYEVTKRPSGVPDRFSGSKSGNTASLTVSGLQAEDEADYYCSSYAGSNNVMFGGGTKLTVL
Question: B7 was tested. Which EC50 [1] did it give?
Answer: The EC50 was 11.1 ng/mL.

B8: C710 (antibody, V domains shown)
VH: B7 VH with T23I, S30N, S67T
VL: B7 VL with Y51F, N97S
Question: For B8, which EC50 [1] is on record?
Answer: The EC50 was 17.8 ng/mL.

B9: C709 (antibody, V domains shown)
VH: QVQLVQSGAEVRKPGASVKVSCMASGYTFNTYDINWVRQGTGQGLEWMGWMNPNSGNTGHAQKFQGRVAMTVNTSMNTAYMELSSLRSEDTAVYYCARGADMLNVAVGADFDYWGQGTLVTVSS
VL: QSALTQPPSASGSPGQSVTISCTGTSSDVGGYNFVSWFQQHPGKAPKLMIYEVSKRPSGVPDRFSGSKSANTASLTVSGLQAEDEADYFCSSYAGSNNWVFGGGTKLTVL
Question: How did the EC50 [1] turn out when B9 was run?
Answer: The EC50 was 7.56 ng/mL.

B10: C704 (antibody, V domains shown)
VH: VQLVESGGGVVQPGRSLRLSCAASGFTFSRYGMHWVRQAPGKGLEWVAVSSYDGSNEYYANSVKGRFTISRDNSKNTLYLQMNSLRAEDTAVYYCAKTGASYCGGDCPFHFDYWGQGTLVTVSS
VL: IRMTQSPSSLSASVGDRVTITCQASQDINNYLNWYQQKPGKAPKLLIYDASDLETGVPSRFSGGGSGTDFTFTISSLQPEDIATYYCQHYNNLPITFGQGTRLEIK
Question: B10 was tested. Which EC50 [1] did it give?
Answer: The EC50 was 13.4 ng/mL.

B11: C532 (antibody, V domains shown)
VH: EVQLVQSGAEVKKPGESLKISCKGSGYRFTNYWIGWVRQMPGKGLEWIGNIFPGDSDSRYSPSFQGQVTISVDMSITTAYLHWSSLKASDTAIYYCARLSERWYSPFDSWGQGTLVTVSS
VL: EIVMTQSPATLSVSPGERATLSCRASQSVSSNLAWYQQKPGQAPRLLIYGASTRATGFPARFSGSGSGTEFTLTISSLQSEDFAVYFCQQYNNWPPGGFTFGPGTKVDIK
Question: B11 was tested. Which EC50 [2] did it give?
Answer: The EC50 was 1 ng/mL.

B12: C565 (antibody, V domains shown)
VH: EVQLVESGGGLIQPGGSLRLSCAASGLIVSSNYMNWVRQAPGKGLEWVSLLYSGGSTYYADSVKGRFTISRDNSKNTLYLQMNSLRPEDTAVYYCARDLSVVGAFDIWGQGTMVTVSS
VL: EIVLTQSPGTLSLSPGERATLSCRASQSLPSTYLAWYQQKRGQAPRLLIYGASSRATGIPDRFSGSGSGTDFTLTISRLEPEDFAVYYCQQYGTSPRVTFGPGTKVDIK
Question: Which EC50 [1] does the source give for B12 here?
Answer: Its EC50 is 1.27 ng/mL.

B13: C703 (antibody, V domains shown)
VH: EVQLLESGGGLVQPGGSLRLSCAGSGFTFSHYALSWVRQAPGKGLEWVSCISGTGGNSHYADSVKGRFTSSRDNSKNILYLQMNSLRAEDTAVYFCAKGGDFWSGYLIPFDSWGQGTLVTVSS
VL: SYELTQSPSVSVAPGKTARITCGGDSIGSKNVHWYQQKPGQAPVLVMYYDNDRPSGIPERFSGYNSGNTATLSISRVEAGDEADYYCLVWDGSGDPWVFGGGTKLTVL
Question: B13 was tested. Which EC50 [1] did it give?
Answer: Its EC50 is 10.9 ng/mL.

B14: C706 (antibody, V domains shown)
VH: EVQLVESGGGLVKPGGSLRLSCAASGFTFSNVWMSWVRQAPGKGLEWVGRIKSKIDGGTTEYAAPVKGRFIISRDDSKNTLSLQMNSLKTEDTAVYYCTTDHGREPPVHWGQGTLVTVSS
VL: EIVLTQSPGTLSLSPGERASLSCRARQSVYSNYLAWYQHKSGQAPRLLFYGASSRATDIPDRFSASGSGTDFTLTISRLEPEDFAVYYCLQYGPSPTFGPGTRLEIK
Question: B14 was tested. Which EC50 [1] did it give?
Answer: Its EC50 is 73.5 ng/mL.

B15: C708 (antibody, V domains shown)
VH: EVQLVESGGGLVQPGGSLRLSCAASGFSFSTYWMSWVRQAPGKGLEWVADIKQDGSEKYFVDSVKGRFTISRDNAKNSLYLHLNSLRAEDTAVYYCAREMAGSGNYYWFGYGMDVWGQGTTVTVSS
VL: IRMTQSPSSVSASVGDRVTITCRASQGISSWLAWYQQKPGKAPKLLIYAASSLQSGVPSRFSGSESGTDFTLTISSLQPEDFATYYCQQANSFPLTFGGGTKVEIK
Question: With B15 as the binder, how does the EC50 [1] read?
Answer: Its EC50 is 130 ng/mL.

B16: C046 (antibody, V domains shown)
VH: EVQLVESGGGLAQPGRSLRLSCAASGFTFDDYAMHWVRQAPGKGLEWVSGINWNSGSLGYADSVKGRFTISRGIAKNSLYLQMNSLRPEDTAFYYCAKAGVRGIAAAGPDLNFDYWGQGTLVTVSS
VL: EIVLTQSPATLSLSPGERATLSCRASQSVSSYLAWYQQKPGQAPRLLIYDASNRATGIPARFIGSGSGTDFTLTISSLEPEDFAVYYCQQRITFGQGTRLEIK
Question: With B16 as the binder, how does the EC50 [1] read?
Answer: Its EC50 is 4.02 ng/mL.

B17: C566 (antibody, V domains shown)
VH: QVQLQESGPGLVKSSQTLSLNCSVFGASISSGGYYWTWIRQHPGKGLEWIGYIHYRGTYYNPSLKSRVTMSVDTSKNQFSLKVRSVSAADTAIYYCARAIVVVTLNWFDLWGQGTLVTVSS
VL: NFMLTQPHSVSESPGKTVTISCSGSGGSIASNYVQWYQQRPGSAPTAVIYEDNQRPSGVPDRFSGSIDSSSNSASLTISGLKTEDEADYYCQSYDTSNPVIFGGGTKLTV
Question: Which EC50 [1] does the source give for B17 here?
Answer: Its EC50 is 5.88 ng/mL.

B18: C529 (antibody, V domains shown)
VH: EVQLLESGGGLVQPGGSLRLSCAASGFTFNNYAMNWVRQAPGRGLEWVSGISGSGANTYYADSVKGRFTISRDNPKNTLSLQMNSLRAEDTALYYCAKVLSPTYYDSWSGPDAFDFWGQGTMVTVSS
VL: DIQMTQSPSTLSASVGDRVTITCRASQTISPWLAWYQQKPGKAPNLLIYKASSLESGVPSRFSGSGSGTEFTLTISSLQPDDFATYYCQQYNSYSSWTFGQGTKVEIK
Question: Which EC50 [2] does the source give for B18 here?
Answer: Its EC50 is 8 ng/mL.

B19: C530 (antibody, V domains shown)
VH: QVQLVESGGGVAQPGRSLRLSCAASGFTFSRYGMHWVRQAPGKGLEWVAVIWHDGSDKYCADFVKGRFTISRDNSKNTLYMQMDSLRAEDTAVYYCARGGRPDHETGIAVLGEYYFDSWGQGTLVTVSS
VL: SYELTQPPSVSVSPGQTARITCSGDAFPLQYGYWYQQKPGQAPVLVIYKDKERPSGISERFSGSSSGTTVTLTISGVQAEDEADYYCQSADTNGVVFGGGTSLTVL
Question: With B19 as the binder, how does the EC50 [2] read?
Answer: Its EC50 is 10.5 ng/mL.

B20: C531 (antibody, V domains shown)
VH: EVQLVESGGGLVQPGRSLRLSCVATGFTFDDFAMHWVRQAPGKGLEWVSGISWNGGIIGYVDSVKGRFTISRDNAKNSLYLQMNSLRPEDTALYYCVKGYRYYYDILTGYYNDAGAFDYWGQGTLVTVSS
VL: DIQSTQSPSFLSASVGDRVAITCRASQGISSYLAWYQQKPGKAPKLLIYPASTLQSGVPSGFSGSGSGTEFTLTISSLQPEDFATYYCQQLNDYPFTFGPGTKVDIK
Question: How did the EC50 [2] turn out when B20 was run?
Answer: The EC50 was 6.84 ng/mL.

B21: C567 (antibody, V domains shown)
VH: QVQLQESGPGLVKPSETLSLTCTVSGGSVINGSYYWSWIRQPPGKGLEWIGFVYYSGSTNYNPSLKSRVTISVDTSKNQFSLNLNSVTAADTAVYYCATGSKSSYYFDYWGQGTLVTVSS
VL: QSVLTQPPSVSAAPGQKVTISCSGSSSNIGNNYVSWYQQLPGAAPKLLIYENNMRPSGIPDRFSGSKSGTSATLGITGLQTGDEADYYCGTWDSSLSVPYVFGTGTRVTVL
Question: For B21, which EC50 [1] is on record?
Answer: Its EC50 is 18.9 ng/mL.

B22: C569 (antibody, V domains shown)
VH: QVQLVESGGNVVQPGRSLRLSCAASGFTFSNYGMHWIRQAPGKGLEWVAVISYDGSDKYYADSVKGRVTISRDNSKNTLYLQMNSLRAEDTAVYYCAKGGPYGDHVRSDYWGLGTLVTVSS
VL: DIQMTQSPSSLSASVGDRVTITCQASQDISNYLNWYQQKPGKVPKLLIYDASNLETGVPSRFSGSGSGTDFTFTISSLQPEDIATYYCQQFHNLPLTFGQGTKLEIK
Question: With B22 as the binder, how does the EC50 [1] read?
Answer: The EC50 was 11.1 ng/mL.
